Tested on: MS2 coat protein
Assay: apparent KD of MS2 coat protein; higher = weaker reporter binding
Details: Eterna round: R107; input ligand: none
Protocol: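 RNA-MaP round R107: designed RNA switches with theophylline, tryptophan, arginine or FMN aptamers are transcribed on-chip within common flanks. They are titrated with SNAP-549-labelled MS2 coat protein in RNA-MaP buffer (100 mM Tris pH 7.5, 80 mM KCl, 4 mM MgCl2), without ligand or with the indicated ligand. Median apparent KD per design.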

Sequence	apparent KD of MS2 coat protein
ACAUGAGGAUCACCCAUGUAUUGAGCCGAAGGAGCGGCAGGUAUGCCAGGUAGGUCGCGGUUAGAGUAGAUUGAUGUUCUUUUGU [Exclusion - Arginine A / B]	12.7 nM
AGGACGGUCGGAAGGAGCGGUACAUGAGGAUCACCCAUGUACUUAUGGGCAUCCGUAGAGUGCCAGGUAGGUCGCCGAUUGCGGG [XArg-B11]	33 nM
GACAUGAGGAUCACCCAUGUUUGCUAUGAAGGAGCGUCGGAAAUGACAGGUAGGUCGCAUAGUAGACCUUGUAUUUCGUGUGUUU [#01 Exclusion - Arginine A]	10.8 nM
UGUGCAGGAUGCGUAAAGGGUCUUGGGCAUCGAGGACCGGUACGGCCGCCACUCGGCUGUACAUGAGGAUCACCCAUGUCAGGGU [#1 Same State - Tryptophan A Attempt #20 (HarryS)]	226 nM
GGGAAAUGAAUAGAAUGAGAUGACACAGAAGGAGCGCGGAUUAACGCAGGUAGGUCGCUGACAACAUGAGGAUCACCCAUGUUUC [#10 Same State - Arginine A]	14.2 nM
ACGCCCAGGUAGGCUUAAUGGGAUAUGGAAGGAGCGCUGAUGCAAGCAGGUAGGUCGCCAACGGACAUGAGGAUCACCCAUGUAC [Same State - Arginine A (Freestyle 3)]	20.9 nM
UGUAUGUGAUCUGAUACCAGUCCAACUGGUAAAGCAUGAGGAUCACCCAUGUAAAAUUGGGACCCUUGGCAGCAGAUCGCAUACU	166 nM
AGCAUGUUCAGAAGGAGCGUGCAAGGGUACAUUCGUAGGACAUGAGGAUCACCCAUGUAAGCACAGGUAGGUCGCUGGACAUGCU [Arg B SS t5]	98.7 nM
GGGUGGUAGGCGGCCGCCACUGAUUUUUAUUUAUAGAUGACAUGAGGAUCACCCAUGUUUAUGUGCAGGACCGGGCCUGUUGUGG [aaaR]	16.1 nM
CCCAGUCAUAACAAAGGAAAUAUACUCGAAGGAGCGUCAUAGUAGGCAGGUAGGUCGCGAGACAUGAGGAUCACCCAUGUAGAGA [swwvmullin]	47.5 nM
GGGCGCUAUCCCGCGAGGGAUAGCGUUCAACGAGGACCGGUACGGCCGCCACUCGAACGAGUGGUGACAUGAGGAUCACCCAUGU [Iaa]	42.5 nM
ACGGACAUGAGGAUCACCCAUGUGGCCGAAGGAGCGGGAAUUAACCCAGGUAGGUCGCGGAAAUUUUUUAAAUUAUUUUAAUUUU [Same State - Arginine A]	17.1 nM
AGCCCGGGAGCGGCCGCCACUGGAGGCUUAGCGCGACAUGAGGAUCACCCAUGUGUGCCCGGCGUUAGGACCGGGCUCGCGUGGU [#1 Same State - Tryptophan B Attempt #22 (HarryS)]	31.2 nM
AUGUCGUUGAAUAUAGCGGCUUGGAGUGAUACCAGUAUGAUCCAAUACCCUUGGCAGCAUUACAUGAGGAUCACCCAUGUUCCAG [SSTheo A #24]	22.6 nM
GACAUUAACUGAAGGAGCGAGGUAGAACGGGAUGAGCAUACAUGAGGAUCACCCAUGUGGCCUCAGGUAGGUCGCAGAUGAGAUU [Exclusion Arginine B GF25]	175 nM
UCAAAUGCGGCGGCCGCCACUCGCGGAUAACGAUAGCUUAACAUGAGGAUCACCCAUGUGUCAUGGAGGACCGGGCCCAUAACAU [ttmullin]	27.2 nM

Same assay, conditions: Eterna round: R107; input ligand: theophylline 20 uM

Sequence	apparent KD of MS2 coat protein
UACAUGAGGAUCACCCAUGUAUGAAUAGAUACCAGAUAAAAUAAGGUCCCUUGGCAGCUAGUGAAUAAAGGGUGGGUAAAAUAAU [Exclusion Theophyline A GF 1]	12.3 nM
UCAUUGAGAGUCAUCCAGCGUUAAUGGGAUACCAGAGUUCUUUUACUCCCUUGGCAGCCCGGAACAUGAGGAUCACCCAUGUCUG [theeternabot_exclusion_MS2_Theo_A_39]	44.7 nM
UUGACAUGAGGAUCACCCAUGUCAAAGGCACGAGGACCGGUACGGCCGCCACUCGUGGUCUAUGGCUGGUGGACUCGUGUCUCGG [Soisusdira]	16 nM
ACUUCGCAUAGGAAAACUAUGUGAAGAAAUCGAGGACCGGUACGGCCGCCACUCGUCCUCAACAUGAGGAUCACCCAUGUAAUAA [Mat - Exclusion - Trytophan A - D5]	24.3 nM
AGCCUAUUACAUGAGGAUCACCCAUGUGAUACCAGUCAGGAAACUGACCCUUGGCAGCGCAUGAGGAUCACCCAUGCGCGAGGCA [Omei Theo A Exc A v4]	12.9 nM
ACAUGAGGAUCACCCAUGUAUUGAGCCGAAGGAGCGGCAGGUAUGCCAGGUAGGUCGCGGUUAGAGUAGAUUGAUGUUCUUUUGU [Exclusion - Arginine A / B]	14.8 nM
AGGACGGUCGGAAGGAGCGGUACAUGAGGAUCACCCAUGUACUUAUGGGCAUCCGUAGAGUGCCAGGUAGGUCGCCGAUUGCGGG [XArg-B11]	29 nM
GACAUGAGGAUCACCCAUGUUUGCUAUGAAGGAGCGUCGGAAAUGACAGGUAGGUCGCAUAGUAGACCUUGUAUUUCGUGUGUUU [#01 Exclusion - Arginine A]	14.5 nM
UGUGCAGGAUGCGUAAAGGGUCUUGGGCAUCGAGGACCGGUACGGCCGCCACUCGGCUGUACAUGAGGAUCACCCAUGUCAGGGU [#1 Same State - Tryptophan A Attempt #20 (HarryS)]	1060 nM
CUAAAUAUAUCGGCCGCCACUUACUCAUGAGGUAACAACAUGAGGAUCACCCAUGUUUGAGGAUCAAGGACCGGGAUAUAUUUAG [AstrosSSTryB#16]	37.2 nM
GGGAAAUGAAUAGAAUGAGAUGACACAGAAGGAGCGCGGAUUAACGCAGGUAGGUCGCUGACAACAUGAGGAUCACCCAUGUUUC [#10 Same State - Arginine A]	17.6 nM
CGUUAAGAAUCGGCCGCCACUCCAUACGUGUGAAUCGCGGAUCGACAUGAGGAUCACCCAUGUCGGAGGACCGGGAUCCUCUUUC [theeternabot_sameState_MS2_Trp_B_12]	49.2 nM
ACGCCCAGGUAGGCUUAAUGGGAUAUGGAAGGAGCGCUGAUGCAAGCAGGUAGGUCGCCAACGGACAUGAGGAUCACCCAUGUAC [Same State - Arginine A (Freestyle 3)]	22.3 nM
UGUAUGUGAUCUGAUACCAGUCCAACUGGUAAAGCAUGAGGAUCACCCAUGUAAAAUUGGGACCCUUGGCAGCAGAUCGCAUACU	190 nM
AGCAUGUUCAGAAGGAGCGUGCAAGGGUACAUUCGUAGGACAUGAGGAUCACCCAUGUAAGCACAGGUAGGUCGCUGGACAUGCU [Arg B SS t5]	82.4 nM

— the supplement of paper PMC9170038
